Source: publication PMC9054839 (2022)

B1: C-terminally ypet-tagged full-length talin WT [mouse] / paxillin (endogenous, fibroblasts) [mouse (endogenous in talin^1/2dko fibroblasts)] (parent complex)
chain 1: MVALSLKISIGNVVKTMQFEPSTMVYDACRMIRERIPEALAGPPNDFGLFLSDDDPKKGIWLEAGKALDYYMLRNGDTMEYRKKQRPLKIRMLDGTVKTIMVDDSKTVTDMLMTICARIGITNHDEYSLVRELMEEKKDEGTGTLRKDKTLLRDEKKMEKLKQKLHTDDELNWLDHGRTLREQGVEEHETLLLRRKFFYSDQNVDSRDPVQLNLLYVQARDDILNGSHPVSFDKACEFAGFQCQIQFGPHNEQKHKAGFLDLKDFLPKEYVKQKGERKIFQAHKNCGQMSEIEAKVRYVKLARSLKTYGVSFFLVKEKMKGKNKLVPRLLGITKECVMRVDEKTKEVIQEWSLTNIKRWAASPKSFTLDFGDYQDGYYSVQTTEGEQIAQLIAGYIDIILKKKKSKDHFGLEGDEESTMLEDSVSPKKSTVLQQQYNRVGKVEHGSVALPAIMRSGASGPENFQVGSMPPAQQQITSGQMHRGHMPPLTSAQQALTGTINSSMQAVQAAQATLDDFETLPPLGQDAASKAWRKNKMDESKHEIHSQVDAITAGTASVVNLTAGDPAETDYTAVGCAVTTISSNLTEMSRGVKLLAALLEDEGGNGRPLLQAAKGLAGAVSELLRSAQPASAEPRQNLLQAAGNVGQASGELLQQIGESDTDPHFQDVLMQLAKAVASAAAALVLKAKSVAQRTEDSGLQTQVIAAATQCALSTSQLVACTKVVAPTISSPVCQEQLVEAGRLVAKAVEGCVSASQAATEDGQLLRGVGAAATAVTQALNELLQHVKAHATGAGPAGRYDQATDTILTVTENIFSSMGDAGEMVRQARILAQATSDLVNAIKADAEGESDLENSRKLLSAAKILADATAKMVEAAKGAAAHPDSEEQQQRLREAAEGLRMATNAAAQNAIKKKLVQRLEHAAKQAAASATQTIAAAQHAASAPKASAGPQPLLVQSCKAVAEQIPLLVQGVRGSQAQPDSPSAQLALIAASQSFLQPGGKMVAAAKASVPTIQDQASAMQLSQCAKNLGTALAELRTAAQKAQEACGPLEMDSALSVVQNLEKDLQEIKAAARDGKLKPLPGETMEKCTQDLGNSTKAVSSAIAKLLGEIAQGNENYAGIAARDVAGGLRSLAQAARGVAALTSDPAVQAIVLDTASDVLDKASSLIEEAKKASGHPGDPESQQRLAQVAKAVTQALNRCVSCLPGQRDVDNALRAVGDASKRLLSDSLPPSTGTFQEAQSRLNEAAAGLNQAATELVQASRGTPQDLARASGRFGQDFSTFLEAGVEMAGQAPSQEDRAQVVSNLKGISMSSSKLLLAAKALSTDPASPNLKSQLAAAARAVTDSINQLITMCTQQAPGQKECDNALRQLETVRELLENPVQPINDMSYFGCLDSVMENSKVLGEAMTGISQNAKNGNLPEFGDAIATASKALCGFTEAAAQAAYLVGVSDPNSQAGQQGLVEPTQFARANQAIQMACQSLGEPGCTQAQVLSAATIVAKHTSALCNSCRLASARTANPTAKRQFVQSAKEVANSTANLVKTIKALDGDFTEENRAQCRAATAPLLEAVDNLSAFASNPEFSSVPAQISPEGRAAMEPIVISAKTMLESAGGLIQTARALAVNPRDPPRWSVLAGHSRTVSDSIKKLITSMRDKAPGQLECETAIAALNSCLRDLDQASLAAVSQQLAPREGISQEALHTQMLTAVQEISHLIEPLASAARAEASQLGHKVSQMAQYFEPLTLAAVGAASKTLSHPQQMALLDQTKTLAESALQLLYTAKEAGGNPKQAAHTQEALEEAVQMMTEAVEDLTTTLNEAASAAGVVGGMVDSITQAINQLDEGPMGDPEGSFVDYQTTMVRTAKAIAVTVQEMVTKSNTSPEELGPLANQLTSDYGRLASQAKPAAVAAENEEIGAHIKHRVQELGHGCSALVTKAGALQCSPSDVYTKKELIECARRVSEKVSHVLAALQAGNRGTQACITAASAVSGIIADLDTTIMFATAGTLNREGAETFADHREGILKTAKVLVEDTKVLVQNAAGSQEKLAQAAQSSVATITRLADVVKLGAASLGAEDPETQVVLINAVKDVAKALGDLISATKAAAGKVGDDPAVWQLKNSAKVMVTNVTSLLKTVKAVEDEATKGTRALEATTEHIRQELAVFCSPEPPAKTSTPEDFIRMTKGITMATAKAVAAGNSCRQEDVIATANLSRRAIADMLRACKEAAFHPEVAPDVRLRALHYGRECANGYLELLDHVLLTLQKPNPDLKQQLTGHSKRVAGSVTELIQAAEAMKGTEWVDPEDPTVIAENELLGAAAAIEAAAKKLEQLKPRAKPKEADESLNFEEQILEAAKSIAAATSALVKAASAAQRELVAQGKVGAIPANALDDGQWSQGLISAARMVAAATNNLCEAANAAVQGHASQEKLISSAKQVAASTAQLLVACKVKADQDSEAMKRLQAAGNAVKRASDNLVKAAQKAAAFEDQENETVVVKEKMVGGIAQIIAAQEEMLRKERELEEARKKLAQIRQQQYKFLPSELRDEH
chain 2: not shown

Variants of: B1
Assay: anti-GFP immunoprecipitation, western blot quantification; talin1/2dKO fibroblasts, N = 3; parent: 1; read off a plot

Row | Variant | ratio to parent
1 | chain 1 A680E, chain 1 K687E, chain 1 T2126E, chain 1 K2133E | ~0.28
2 | chain 1 T2126E, chain 1 K2133E | ~0.69
3 | chain 1 A680E, chain 1 K687E | ~0.44
